Measured values as given in article PMC9482650, “Quantitative fragmentomics allow affinity mapping of interactomes” (Nature Communications, 2022).

Columns and labels:
Experiment in all cases: holdup assay
Design in all cases: key: below the threshold = too weak to quantify, mostly under pKd 3.1 to 4
Conditions in all cases: plain residues with an end cap or a label only (N-terminal biotin on a linker: ttds)
APBA3_1, O96018 = biological target: T1, APBA3_1, O96018
T1 sequence (O96018 389-490, limits assumed, looked up): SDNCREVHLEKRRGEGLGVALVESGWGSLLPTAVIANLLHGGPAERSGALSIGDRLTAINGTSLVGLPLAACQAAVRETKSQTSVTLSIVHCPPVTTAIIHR

DLG3_2, Q92796 = biological target: T2, DLG3_2, Q92796
T2 sequence (Q92796 221-321, limits assumed, looked up): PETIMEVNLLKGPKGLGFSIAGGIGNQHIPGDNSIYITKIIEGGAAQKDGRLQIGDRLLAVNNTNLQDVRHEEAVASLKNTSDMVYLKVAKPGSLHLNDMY

FRMPD1, Q5SYB0 = biological target: T3, FRMPD1, Q5SYB0
T3 sequence (Q5SYB0 52-145, limits assumed, looked up): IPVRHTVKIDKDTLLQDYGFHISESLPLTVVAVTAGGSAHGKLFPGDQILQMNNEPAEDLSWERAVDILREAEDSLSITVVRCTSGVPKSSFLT

FRMPD2_3, Q68DX3 = biological target: FRMPD2_3, Q68DX3
FRMPD4, Q14CM0 = biological target: FRMPD4, Q14CM0
GORASP1, Q9BQQ3 = biological target: GORASP1, Q9BQQ3
GRIP1_4, Q9Y3R0 = biological target: T4, GRIP1_4, Q9Y3R0
T4 sequence (Q9Y3R0 467-571, limits assumed, looked up): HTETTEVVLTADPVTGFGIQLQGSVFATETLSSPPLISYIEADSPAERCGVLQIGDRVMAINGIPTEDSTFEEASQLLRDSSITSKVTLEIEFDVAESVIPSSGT

GRIP1_5, Q9Y3R0 = biological target: T5, GRIP1_5, Q9Y3R0
T5 sequence (Q9Y3R0 568-668, limits assumed, looked up): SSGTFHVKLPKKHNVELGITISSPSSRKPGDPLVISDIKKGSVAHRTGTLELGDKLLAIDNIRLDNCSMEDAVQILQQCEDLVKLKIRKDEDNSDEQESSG

GRIP2_7, Q9C0E4 = biological target: GRIP2_7, Q9C0E4
HTRA1, Q92743 = biological target: HTRA1, Q92743
HTRA2, O43464 = biological target: HTRA2, O43464
HTRA3, P83110 = biological target: T6, HTRA3, P83110
T6 sequence (P83110 354-453, limits assumed, looked up): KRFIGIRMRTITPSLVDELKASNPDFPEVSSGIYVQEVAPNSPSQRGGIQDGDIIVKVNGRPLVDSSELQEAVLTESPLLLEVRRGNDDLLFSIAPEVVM

IL16_3, Q14005 = biological target: IL16_3, Q14005
Inadl_3, Q8NI35 = biological target: Inadl_3, Q8NI35
Inadl_5, Q8NI35 = biological target: Inadl_5, Q8NI35
LIMK2, P53671 = biological target: LIMK2, P53671
LNX1_2, Q8TBB1 = biological target: LNX1_2, Q8TBB1
MAGI2_2, Q86UL8 = biological target: MAGI2_2, Q86UL8
MAGI2_6, Q86UL8 = biological target: MAGI2_6, Q86UL8
NHERF4_4, Q86UT5 = biological target: NHERF4_4, Q86UT5
PDZD2_2, O15018 = biological target: T7, PDZD2_2, O15018
T7 sequence (O15018 329-429, limits assumed, looked up): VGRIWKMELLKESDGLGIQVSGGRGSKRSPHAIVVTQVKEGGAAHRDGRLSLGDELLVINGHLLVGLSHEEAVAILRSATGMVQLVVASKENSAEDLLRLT

PDZD7_3, Q9H5P4 = biological target: T8, PDZD7_3, Q9H5P4
T8 sequence (Q9H5P4 857-944, limits assumed, looked up): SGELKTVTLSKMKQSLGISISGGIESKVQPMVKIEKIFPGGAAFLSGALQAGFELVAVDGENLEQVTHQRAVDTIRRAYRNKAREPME

SIPA1L2, Q9P2F8 = biological target: T9, SIPA1L2, Q9P2F8
T9 sequence (Q9P2F8 945-1036, limits assumed, looked up): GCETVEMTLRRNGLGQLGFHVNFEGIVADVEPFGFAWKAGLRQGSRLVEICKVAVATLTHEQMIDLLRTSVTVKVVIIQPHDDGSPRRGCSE

SNTG2, Q9NY99 = biological target: T10, SNTG2, Q9NY99
T10 sequence (Q9NY99 68-166, limits assumed, looked up): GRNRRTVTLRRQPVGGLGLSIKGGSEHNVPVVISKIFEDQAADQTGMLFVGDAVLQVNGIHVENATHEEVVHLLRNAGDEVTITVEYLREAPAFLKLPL

TJP1_3, Q07157 = biological target: TJP1_3, Q07157
TJP3_3, O95049 = biological target: T11, TJP3_3, O95049
T11 sequence (O95049 375-456, limits assumed, looked up): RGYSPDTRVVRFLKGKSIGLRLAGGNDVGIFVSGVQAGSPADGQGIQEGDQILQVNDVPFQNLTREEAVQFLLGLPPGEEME

Inadl_3, Q8NI35, sequence (Q8NI35 359-469): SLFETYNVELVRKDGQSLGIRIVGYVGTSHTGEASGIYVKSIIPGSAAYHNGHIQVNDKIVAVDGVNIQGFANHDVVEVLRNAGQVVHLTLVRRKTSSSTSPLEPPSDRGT
Inadl_5, Q8NI35, sequence (Q8NI35 673-780): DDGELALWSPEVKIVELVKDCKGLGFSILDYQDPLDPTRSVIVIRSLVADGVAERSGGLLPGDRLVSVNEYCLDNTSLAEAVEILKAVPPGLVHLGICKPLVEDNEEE
IL16_3, Q14005, sequence (Q14005 1107-1207): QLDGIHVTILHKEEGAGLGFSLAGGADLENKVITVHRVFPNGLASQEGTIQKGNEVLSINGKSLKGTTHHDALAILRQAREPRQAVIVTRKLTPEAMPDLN
MAGI2_6, Q86UL8, sequence (Q86UL8 1141-1229): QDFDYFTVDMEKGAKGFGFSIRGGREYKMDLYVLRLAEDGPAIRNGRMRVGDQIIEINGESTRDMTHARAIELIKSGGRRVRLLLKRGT
FRMPD4, Q14CM0, sequence (Q14CM0 67-160): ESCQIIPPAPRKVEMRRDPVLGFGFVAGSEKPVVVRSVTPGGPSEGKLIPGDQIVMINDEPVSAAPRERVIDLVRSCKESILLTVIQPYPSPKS
HTRA2, O43464, sequence (O43464 355-458): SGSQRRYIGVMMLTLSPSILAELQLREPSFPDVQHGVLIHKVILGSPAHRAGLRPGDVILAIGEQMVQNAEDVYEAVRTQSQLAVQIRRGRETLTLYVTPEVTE
TJP1_3, Q07157, sequence (Q07157 416-512): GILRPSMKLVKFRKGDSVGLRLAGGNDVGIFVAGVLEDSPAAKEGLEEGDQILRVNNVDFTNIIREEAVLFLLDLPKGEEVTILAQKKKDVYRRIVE
NHERF4_4, Q86UT5, sequence (Q86UT5 464-550): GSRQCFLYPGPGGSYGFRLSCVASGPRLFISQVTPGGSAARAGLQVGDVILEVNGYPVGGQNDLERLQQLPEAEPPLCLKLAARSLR
LIMK2, P53671, sequence (P53671 143-248): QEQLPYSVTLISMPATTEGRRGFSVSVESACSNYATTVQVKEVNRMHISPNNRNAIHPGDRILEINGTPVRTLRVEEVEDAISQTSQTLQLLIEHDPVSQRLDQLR
LNX1_2, Q8TBB1, sequence (Q8TBB1 371-470): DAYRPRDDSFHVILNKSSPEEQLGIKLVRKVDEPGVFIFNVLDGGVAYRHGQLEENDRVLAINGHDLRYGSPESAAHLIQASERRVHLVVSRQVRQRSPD
MAGI2_2, Q86UL8, sequence (Q86UL8 410-522): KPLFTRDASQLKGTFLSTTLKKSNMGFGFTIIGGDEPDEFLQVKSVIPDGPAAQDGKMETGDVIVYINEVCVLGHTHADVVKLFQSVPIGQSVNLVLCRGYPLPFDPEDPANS
HTRA1, Q92743, sequence (Q92743 360-477): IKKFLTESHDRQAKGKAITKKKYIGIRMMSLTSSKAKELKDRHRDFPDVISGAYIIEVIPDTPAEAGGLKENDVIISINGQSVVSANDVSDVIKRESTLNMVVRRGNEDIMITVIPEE
GRIP2_7, Q9C0E4, sequence (Q9C0E4 934-1023): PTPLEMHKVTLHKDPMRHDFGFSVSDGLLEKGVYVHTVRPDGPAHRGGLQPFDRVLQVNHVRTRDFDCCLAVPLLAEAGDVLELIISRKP
FRMPD2_3, Q68DX3, sequence (Q68DX3 1073-1166): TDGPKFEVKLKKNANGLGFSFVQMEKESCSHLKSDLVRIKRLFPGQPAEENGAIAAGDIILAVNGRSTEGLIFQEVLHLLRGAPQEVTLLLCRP
GORASP1, Q9BQQ3, sequence (Q9BQQ3 1-208): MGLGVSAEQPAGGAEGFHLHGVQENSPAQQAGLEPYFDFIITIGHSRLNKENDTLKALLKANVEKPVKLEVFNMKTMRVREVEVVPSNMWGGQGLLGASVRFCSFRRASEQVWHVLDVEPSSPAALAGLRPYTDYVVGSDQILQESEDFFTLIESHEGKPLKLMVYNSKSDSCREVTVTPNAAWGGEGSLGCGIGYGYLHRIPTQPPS

Row | Binder | pKd (APBA3_1, O96018) | pKd (DLG3_2, Q92796) | pKd (FRMPD1, Q5SYB0) | pKd (FRMPD2_3, Q68DX3) | pKd (FRMPD4, Q14CM0) | pKd (GORASP1, Q9BQQ3) | pKd (GRIP1_4, Q9Y3R0) | pKd (GRIP1_5, Q9Y3R0) | pKd (GRIP2_7, Q9C0E4) | pKd (HTRA1, Q92743) | pKd (HTRA2, O43464) | pKd (HTRA3, P83110) | pKd (IL16_3, Q14005) | pKd (Inadl_3, Q8NI35) | pKd (Inadl_5, Q8NI35) | pKd (LIMK2, P53671) | pKd (LNX1_2, Q8TBB1) | pKd (MAGI2_2, Q86UL8) | pKd (MAGI2_6, Q86UL8) | pKd (NHERF4_4, Q86UT5) | also measured
1 | RRVRKLPSTTL [RPS6KA1, Q15418] | below the threshold | below the threshold | below the threshold | below the threshold | below the threshold | below the threshold | below the threshold | 3.52 | below the threshold | 4.09 | below the threshold | below the threshold | below the threshold | below the threshold | below the threshold | below the threshold | 3.52 | 4.4 | below the threshold | 3.49 | pKd (PDZD2_2, O15018): 3.55; pKd (PDZD7_3, Q9H5P4): 4.93; pKd (SIPA1L2, Q9P2F8): below the threshold; pKd (SNTG2, Q9NY99): 4.54; pKd (TJP1_3, Q07157): below the threshold; pKd (TJP3_3, O95049): 3.59
2 | DEDQHTQITKV [PTEN, P60484] | below the threshold | 4.04 | below the threshold | below the threshold | below the threshold | 3.88 | below the threshold | 3.72 | 3.55 | 4.27 | below the threshold | below the threshold | below the threshold | 3.45 | below the threshold | below the threshold | 3.77 | below the threshold | 4.07 | below the threshold | pKd (PDZD2_2, O15018): 3.71; pKd (PDZD7_3, Q9H5P4): 5.1; pKd (SIPA1L2, Q9P2F8): below the threshold; pKd (SNTG2, Q9NY99): 4.03; pKd (TJP1_3, Q07157): below the threshold; pKd (TJP3_3, O95049): below the threshold
3 | TEEEVQDTRL [CFTR, P13569] | below the threshold | below the threshold | below the threshold | below the threshold | 4.66 | below the threshold | below the threshold | below the threshold | below the threshold | below the threshold | below the threshold | below the threshold | below the threshold | below the threshold | below the threshold | below the threshold | below the threshold | below the threshold | below the threshold | below the threshold | pKd (PDZD2_2, O15018): below the threshold; pKd (PDZD7_3, Q9H5P4): 4.23; pKd (SIPA1L2, Q9P2F8): below the threshold; pKd (SNTG2, Q9NY99): 4.37; pKd (TJP1_3, Q07157): below the threshold; pKd (TJP3_3, O95049): below the threshold
